In paper PMC6167435, “Genetic Removal of the CH1 Exon Enables the Production of Heavy Chain-Only IgG in Mice” (Frontiers in Immunology, 2018):
Residue numbers refer to the chain shown, from its start. Blank lines part the entries; values can stand above or below the molecule they belong to.

Tests used:
[1] = target: IgG1 heavy chain of HG1 mice (γ1 CH1 exon deleted) (mouse (endogenous in serum of HG1 mice)); experiment: SDS-PAGE under non-reducing conditions with Western blotting; serum of HG1 and WT mice; detected with HRP-conjugated goat anti-mouse IgG1 heavy chain; association judged from molecular weights (covalent association)
ovalbumin = ovalbumin (Gallus gallus (chicken), , UniProt P01012)
ovalbumin, sequence (P01012 whole entry): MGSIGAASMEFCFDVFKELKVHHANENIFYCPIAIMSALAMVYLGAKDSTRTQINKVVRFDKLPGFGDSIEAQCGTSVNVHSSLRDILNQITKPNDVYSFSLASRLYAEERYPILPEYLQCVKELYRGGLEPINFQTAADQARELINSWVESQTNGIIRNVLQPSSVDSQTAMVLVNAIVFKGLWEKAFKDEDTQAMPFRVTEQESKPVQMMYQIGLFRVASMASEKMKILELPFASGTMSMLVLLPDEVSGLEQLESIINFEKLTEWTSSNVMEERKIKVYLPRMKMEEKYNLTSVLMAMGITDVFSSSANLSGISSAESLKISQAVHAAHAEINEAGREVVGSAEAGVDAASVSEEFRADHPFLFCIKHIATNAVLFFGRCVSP

stoichiometry N [1]: 2
Molecule: IgG1 heavy chain of HG1 mice (γ1 CH1 exon deleted)

binding result (ovalbumin): binds
B3: 3A-2 (VHH)
VHH: EVKLVESGGDLVKPGGSLKLSCAASGFTFSSYGMSWIRQTPDKRLEWVATISSGGSYTYYPDSVKGRFTISRDNAKNTLYLQMSSLKSEDTAMYYCARRGRYDDTMDYWGQGTTLTVSS

binding result (ovalbumin): binds
B4: 3A-6 (VHH)
VHH: B3 VHH with A23V, L115V

Further lines, the molecule ahead of its results:

B1: 3A-1 (VHH)
VHH: B3 VHH with L115V
binding result (ovalbumin): binds

B2: 3A-3 (VHH)
VHH: B3 VHH with K76E, T114S
binding result (ovalbumin): binds

B5: 3A-20 (VHH)
VHH: B3 VHH with K3Q, V5E, L115V
binding result (ovalbumin): binds

B6: 3A-9 (VHH)
VHH: B3 VHH with S84G, T114S
binding result (ovalbumin): binds

B7: 3A-31 (VHH)
VHH: B3 VHH with I37V, N77S, R101K
binding result (ovalbumin): binds
